Measured values: PMC2953525, “Subtle Alterations in PCNA-Partner Interactions Severely Impair DNA Replication and Repair” (PLoS Biology, 2010)
Where no end group is shown, it is not given here.

T1: pol30-Msh6E6, 6×Histidine-tagged (yeast, UniProt P15873 1-258, IDCL DIDADFLKIEEL to DYDKDLLKIIEL)
T1 construct: PCNA (POL30), yeast, in pET28; source: E. coli BL21, in cleared crude lysate (ELISA); purified by Ni-NTA (SPR)
T1 sequence: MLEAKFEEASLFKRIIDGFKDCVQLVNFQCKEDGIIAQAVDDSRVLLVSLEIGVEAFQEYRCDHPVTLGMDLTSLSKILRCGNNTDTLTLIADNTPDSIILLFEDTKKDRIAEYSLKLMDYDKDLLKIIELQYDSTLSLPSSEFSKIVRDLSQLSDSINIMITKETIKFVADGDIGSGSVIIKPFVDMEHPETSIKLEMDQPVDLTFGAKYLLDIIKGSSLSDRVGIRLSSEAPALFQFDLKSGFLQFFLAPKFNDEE

T2: pol30-Ung1E3, 6×Histidine-tagged (yeast, UniProt P15873 1-258, IDCL DIDADFLKIEEL to DFDYDELKIEEL)
T2 construct: PCNA (POL30), yeast, in pET28; source: E. coli BL21, in cleared crude lysate (ELISA); purified by Ni-NTA (SPR)
T2 sequence: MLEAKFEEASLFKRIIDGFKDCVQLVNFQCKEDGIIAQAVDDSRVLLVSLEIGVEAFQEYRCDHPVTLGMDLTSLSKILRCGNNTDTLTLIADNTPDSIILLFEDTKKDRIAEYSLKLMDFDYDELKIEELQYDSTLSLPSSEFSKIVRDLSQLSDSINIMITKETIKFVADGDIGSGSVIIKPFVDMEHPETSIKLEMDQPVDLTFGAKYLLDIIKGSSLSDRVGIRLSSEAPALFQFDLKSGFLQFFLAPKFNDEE


Assays:
[1] = target: T1, pol30-Msh6E6, 6×Histidine-tagged; assay: SPR; ProteOn XPR36; WT or mutant PCNA (0.4 to 5.2 fmol) immobilised on a GLM chip by carbodiimide-activated succinimide coupling; PIP peptides 5–5,000 nM at 30 µl/min; peptide buffer 150 mM NaCl, 1 mM EDTA, 0.01% Tween-80, 30 mM Hepes, pH 7.5; settings: both partners purified
[2] = target: T2, pol30-Ung1E3, 6×Histidine-tagged; assay: as above; settings: both partners purified

| fold increase in binding affinity relative to WT PCNA (SPR) [1] [fold] | fold increase in binding affinity relative to WT PCNA (SPR) [2] [fold] | Binder |
| --- | --- | --- |
| 1.6 | – | QSSLLSFF (also: biotinylated, site not given here) [PIP peptide derived from Msh6] |
| – | 3.5 | QTTIEDFF (also: biotinylated, site not given here) [PIP peptide derived from Ung1] |
